Measurements published in paper PMC8706527.

Assays:
[1] = target: recombinant human FcγRIIIa-Phe (human) (UniProt P08637); assay: SPR
[2] = target: recombinant human neonatal Fc receptor (rhFcRn) (human) (UniProt P55899); assay: SPR
Sequence of recombinant human neonatal Fc receptor (rhFcRn) (human) (P55899 whole entry, looked up, tested part not stated): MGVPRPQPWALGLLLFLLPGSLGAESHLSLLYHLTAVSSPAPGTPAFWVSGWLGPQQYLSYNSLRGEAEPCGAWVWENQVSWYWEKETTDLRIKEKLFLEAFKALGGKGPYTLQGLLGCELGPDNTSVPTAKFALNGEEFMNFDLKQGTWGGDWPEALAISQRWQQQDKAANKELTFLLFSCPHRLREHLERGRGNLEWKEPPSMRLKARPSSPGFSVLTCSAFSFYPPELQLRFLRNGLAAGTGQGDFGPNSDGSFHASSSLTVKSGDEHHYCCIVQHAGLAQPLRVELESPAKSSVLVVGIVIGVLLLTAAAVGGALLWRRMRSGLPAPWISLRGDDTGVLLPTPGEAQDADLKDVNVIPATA

Sequence of recombinant human FcγRIIIa-Phe (human) (P08637 17-208): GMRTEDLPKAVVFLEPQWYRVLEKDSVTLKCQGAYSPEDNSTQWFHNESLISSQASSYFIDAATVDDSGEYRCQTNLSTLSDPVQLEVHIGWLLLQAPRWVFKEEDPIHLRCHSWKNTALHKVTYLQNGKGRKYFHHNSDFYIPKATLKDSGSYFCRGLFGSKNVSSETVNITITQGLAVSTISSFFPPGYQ

Work on “wild type IgG1 (modified ZRC-3308 mAb with wild type Fc) (antibody)” yielded a Kd [1] of 1620 nM, a Kd [2] of 195 nM and a kon [2] of 986000 M⁻¹ s⁻¹.
